Data as given in patent US20230212587A1, “Mutant Hydroxyphenylpyruvate Dioxygenase Polypeptide, Encoding Gene Thereof and Use Therefor” (Beijing Dabeinong Biotechnology Co., Ltd., priority 2019, published 2023).
Numbering of substitutions follows the chain as printed. In names and notes the source's numbering stands.

B1: N4HPPD-02: native Burkholderia sp. N4 HPPD, SEQ ID NO: 165 (protein)
chain: MQIPNWENPVGTDGFEFIEYTAPDPKALGQLFERMGFTAIARHRHKDVTVYRQGDINFIINAEPDSFAQRFARLHGPSICAIAFRVQDAAKAYQHALELGAWGFDNKTGPMELNIPAIKGIGDSLIYFVDRWRGKNGAQPGAIGDISIYDVDFEPIAGATPNPAGHGLTYIDHLTHNVHRGRMQEWAEFYERLFNFREVRYFDIEGKVTGVKSKAMTSPCGKIRIPINEEGSDTAGQIQEYLDAYHGEGIQHIALGTSDIYGAVDGLRGKEVKLLDTIDTYYELVDRRVPDHGESLDELKKRKILIDGARDDLLLQIFTENQIGPIFFEIIQRKGNQGFGEGTFKALFESIELDQIRRGVVQDKA
modifications: N4HPPD Amino Acid Sequence (Burkholderia)
B2: N4HPPDm-F372A-02: Burkholderia sp. N4 HPPD mutant F372A, SEQ ID NO: 168 (protein)
chain: B1 chain with F318A
modifications: N4HPPDm-F372A Amino Acid Sequence
B3: N5HPPD-02: native Sphingobium sp. N5 HPPD, SEQ ID NO: 171 (protein)
chain: MAADSENPLGLHGFAFAEFTSPDPAAMARQFEQLGFVPAARRKDRGLTLYRQGRIAFILNAGEGEQASAFRAAHGPSANGMAFNVADAKAAHRHAIQSGATDADTAQSALPGTYAIEGIGDSLLYLVDSDPFADWDEVPGWREASAERGVGLDLLDHLTHNVRRGQMRVWSEFYATLFGFEEQKFFDIKGQATGLFSQAMIAPDHEIRIPLNESQDDNSQIEEFIREYNGEGIQHLALTTPDIYSTVEKLRANGVRLQDTIDTYYDLVDERVPGHGEDLARLRKNRILIDGDVHDEGLLLQIFTETMFGPIFFEIIQRKGNEGFGNGNFQVLFESIELDQIRRGVVTVDA
modifications: N5HPPD Amino Acid Sequence (Burkholderia)
B4: N5HPPDm-F372A-02: Sphingobium sp. N5 HPPD mutant F372A, SEQ ID NO: 174 (protein)
chain: B3 chain with F303A
modifications: N5HPPDm-F372A Amino Acid Sequence
B5: TaHPPDm-F372A-02: Triticum aestivum HPPD mutant F372A, SEQ ID NO: 42 (protein)
chain: MPPTPTTPAATGAGAAAAVTPEHARPRRMVRFNPRSDRFHTLSFHHVEFWCADAASAAGRFAFALGAPLAARSDLSTGNSVHASQLLRSGNLAFLFTAPYANGCDAATASLPSFSADAARRFSADHGLAVRSIALRVADAAEAFRASVDGGARPAFSPVDLGRGFGFAEVELYGDVVLRFVSHPDGTDVPFLPGFEGVSNPGAVDYGLTRFDHVVGNVPELASAAAYVAGFTGFHEFAEFTTEDVGTAESGLNSMVLANNSEGVLLPLNEPVHGTKRRSQIQTFLEHHGGPGVQHIAVASSDVLRTLREMRARSAMGGFDFLPPPLPKYYEGVRRIAGDVLSEAQIKECQELGVLVDRDDQGVLLQIATKPVGDRPTLFLEMIQRIGCMEKDERGEEYQKGGCGGFGKGNFSELFKSIEDYEKSLEAKQSAAVQGS
modifications: TaHPPDm-F372A Amino Acid Sequence
B6: BdHPPD-02: native Brachypodium distachyon HPPD, SEQ ID NO: 45 (protein)
chain: MPPPATTAAPAAAAVTPEHARPPRRVARVNPRSDRFSALSFHHVELWCADAASAAGRFSFALGAPPAARSDLSTGNSAHASILLRSGSLAFLFTAPYAPSPASDSAASIPSFSASAARQFTADHGGLAVRAVALRVSSASDAFHASVSAGARPSFPPADLGQGFALAEVELYGDVVLRFISHPDENTEIPFLPGFESVSNPGASTYGLTRFDHVVGNVPSLAPVAAYIAGFTGFHEFAEFTAEDVGTADSGLNSVVLANNSERVLLPLNEPVHGTKRRSQIQTYLDHHGGPGVQHIALASDDVLRTLREMRARSAMGGFEFLAPPPPNYYDGVRRRAGDVLSEAQIKECQELGVLVDRDDQGVLLQIFTKPVGDRPTLFLEMIQRIGCMEKDEIGQEQQKGGCGGFGKGNFSELFRSIEEYEKSLEAKQSAVVQES
modifications: Brachypodium distachyon; BdHPPD Amino Acid Sequence
B7: BdHPPDm-F372A-02: Brachypodium distachyon HPPD mutant F372A, SEQ ID NO: 48 (protein)
chain: B6 chain with F368A
modifications: BdHPPDm-F372A Amino Acid Sequence

Test system: Arabidopsis thaliana T1 plants
Assay: Topramezone tolerance of transgenic Arabidopsis thaliana T1 plants (pesticide damage grade by bleached leaf area, score, resistance evaluation)
Format: in vivo
Settings: HPPDs from different species; number of plants (of 16) in this grade; topramezone 25 g ai/ha (1x), 7 DAT
In short: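 Eighteen days after sowing, wild-type and HPPD-transgenic T1 Arabidopsis receive a topramezone spray at 1×, 2× or 4× field rate (25–100 g ai/ha) or water. Seven days later each plant is graded by its proportion of bleached leaf area.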

Molecule	Classification and statistics of pesticide damage grade Grade 0	Classification and statistics of pesticide damage grade Grade 1	Classification and statistics of pesticide damage grade Grade 2	Classification and statistics of pesticide damage grade Grade 3
B1	5	6	5	0
B2	16	0	0	0
B3	6	6	4	0
B4	16	0	0	0
B5	16	0	0	0
B6	0	0	0	16
B7	16	0	0	0

Same assay, conditions: HPPDs from different species; number of plants (of 16) in this grade; topramezone 100 g ai/ha (4x), 7 DAT

Molecule	Classification and statistics of pesticide damage grade Grade 0	Classification and statistics of pesticide damage grade Grade 1	Classification and statistics of pesticide damage grade Grade 2	Classification and statistics of pesticide damage grade Grade 3
B1	0	8	2	6
B2	12	4	0	0
B3	0	7	5	4
B4	13	3	0	0
B5	15	1	0	0
B6	0	0	0	16
B7	6	10	0	0

Same assay, conditions: HPPDs from different species; score for pesticide damage 0-100; topramezone 25 g ai/ha (1x), 7 DAT

Molecule	Scores
B1	33
B2	0
B3	21
B4	0
B5	0
B6	100
B7	0

Same assay, conditions: HPPDs from different species; score for pesticide damage 0-100; topramezone 100 g ai/ha (4x), 7 DAT

Molecule	Scores
B1	63
B2	8
B3	60
B4	6
B5	2
B6	100
B7	21

Same assay, conditions: HPPDs from different species; topramezone 25 g ai/ha (1x), 7 DAT

Molecule	Resistance evaluation
B1	moderately resistant (moderately resistant plants (scores 16-33))
B2	highly resistant (highly resistant plants (scores 0-15))
B3	moderately resistant (moderately resistant plants (scores 16-33))
B4	highly resistant (highly resistant plants (scores 0-15))
B5	highly resistant (highly resistant plants (scores 0-15))
B6	non-resistant (non-resistant plants (scores 68-100))
B7	highly resistant (highly resistant plants (scores 0-15))

Same assay, conditions: HPPDs from different species; topramezone 100 g ai/ha (4x), 7 DAT

Molecule	Resistance evaluation
B1	poorly resistant (poorly resistant plants (scores 34-67))
B2	highly resistant (highly resistant plants (scores 0-15))
B3	poorly resistant (poorly resistant plants (scores 34-67))
B4	highly resistant (highly resistant plants (scores 0-15))
B5	highly resistant (highly resistant plants (scores 0-15))
B6	non-resistant (non-resistant plants (scores 68-100))
B7	moderately resistant (moderately resistant plants (scores 16-33))
